Measured values taken from the supplement of paper PMC12764529.
± gives the half width of the 95% confidence interval.

Test: folding stability dG unfold from trypsin proteolysis; higher = more stable
Summary of the method: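 Digests were run with trypsin and chymotrypsin at 11 concentrations in threefold dilutions, plus a no-protease condition, on designed mini-proteins in a PA-tagged cDNA display construct. The mini-proteins were under 80 residues, had no cysteine, and were kept only when AlphaFold2 dimer inter-PAE was above 15. After sequencing, Bayesian fitting of the counts gave K50, from which unfolding free energy was derived against a sequence-predicted unfolded-state K50 and a shared folded-state K50, per protease or combined.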

Sequence | folding stability dG unfold
SAGSRILERLREEGLTITKVTSVEKGPGYERIEVETALPDGTTGKVKVTRDPADPDKIEVELEFTPAEVSAG [r5_683_JUSTAS] | 0.797 ± 0.022 kcal/mol
PISAEEAVDYAKHLAERLLKENPPGQEEVEIEFQSPNGWTVKIEIDPNNRKIDVEVYPRNGEPIAKAKIKVS [r1_370_TrROS] | 0.108 ± 0.12 kcal/mol
SAMKVYKAKVTIVDEEGNLLDEIELEFETEEELKEKVLEELGVSEEEIVEIELSPEVSEEEFEKKLKLESAG [r14_852_JUSTAS] | -0.425 ± 0.25 kcal/mol
SAGGSAGGEKGYKLVEITIPVTVYHGNKPYTIPIPIKVKSPEEVEKLKKFIENTSYDPTSGKFSSAGGSAGG [r6_197_TrMRF] | 0.607 ± 0.1 kcal/mol
SAGGSAGGSAGGMPVLVNIELPIPGTNETLTLEVEAEGPGGEEVEKEAQETAEKVLEESSAGGSAGGSAGGS [r10_863_JUSTAS] | 1.58 ± 0.1 kcal/mol
SAGGSAGGEFTVTVTIEKDEEKGFIRIPISVSLPSSAFVPKTVEFLEFAKTLKENLPELEVDASSAGGSAGG [r6_102_TrMRF] | 0.609 ± 0.018 kcal/mol
SIYIKIPIDEIKPEWNKNGMITLEIKYPNGKTIKFEFPPGFQIDNIEVIKPGWIMFEFEIVPPADPEDAKSA [r9_501_TrROS] | 1.76 ± 0.12 kcal/mol
SAGRIYVDPNMVVIEIKYPDKPMPIIIPFKDPEDQEMAKELVKKIMRYLRNEGLPVEVEVEVFPPGQPVSAG [r5_823_TrROS] | 1.51 ± 0.026 kcal/mol
SAGGSAGGSDTPTINIPPGMGNPEQAIEQLKEIREHFPPGKKISISAPGGWKPELKEAGLITVSAGGSAGGS [r12_992_TrROS] | -0.37 ± 0.11 kcal/mol
SAGGSAGGNPDLVITFPDGVKITVHPDGTITITRFIPGRDVPVGTRTITVPAPDGIPLEELLKYSAGGSAGG [r6_572_TrMRF] | 0.887 ± 0.062 kcal/mol
SAGMVIPREEALANYSEEEIKELAKKIAEELGYKPKKIEIKKDPSPNSSITVTITPPDGSTIPLVLELPSAG [r5_745_JUSTAS] | 0.959 ± 0.041 kcal/mol
SAGGSAGGSAGGMYYAIITNKNGKKKIIKFKSLEEMEEAAKKNNIKIEIIPKEELEKLLSAGGSAGGSAGGS [r10_66_TrROS_Hall] | 3.56 ± 0.11 kcal/mol
SAMIVVTLTINPITGKPILIFDPGVGVYAIDPETGEPHEATVDGDTLTLNFGNRPILLTPEAVIPPEELSAG [r14_208_TrMRF] | 0.94 ± 0.017 kcal/mol
SAGGSAGGSSVEYTFLSKNPEEAKKKFEEKIKEIEEKGEGKIEKAEFTIVSPDNPEYLKLISSSAGGSAGGS [r12_551_JUSTAS] | 0.213 ± 0.05 kcal/mol
SAGGSAGGSTVEEELLEKAAAAHPPGTTLTVDVVIVDPNNPVPIGTRTVTITVNADGSYTVVDSAGGSAGGS [r20_151_JUSTAS] | 2.18 ± 0.07 kcal/mol
SAGGGSATLVGIFPEKGYLVVLTITTDGDDFSIGELKVTFEPLDDDSVKATFYTPSGQKHDAIGLPVASAGG [r13_515_TrMRF] | 1.54 ± 0.053 kcal/mol

Sequence | folding stability dG unfold
SAGGSAGGSKEKYIKIVVEVNGEKKVIVVKAKTIEELEELAKKLNLEVEIEKREDGYLVIRLKSAGGSAGGS [r12_810_TrROS_Hall] | 3.21 ± 0.053 kcal/mol
SAGGLKPGDWVIIMTIEFPFPFPDDDGKPQEWRIKITIWVPVEYDPPDGKLEIDNIFINIEIVPPDQISAGG [r13_312_TrROS] | 3.52 ± 0.22 kcal/mol
SEEEIVEEPPPETRTLTLELVDPETGELVATITVSPDGTVTLTVRTPDGEEKTITVPEGMSLEEALAAALSA [r9_346_TrROS_Hall] | 3.19 ± 0.21 kcal/mol
SAGSSLRLELDLEVTLYAPVVSVRPDGSLSLVPGSTRPIPVRLRVTFELTLDPDNPLNVSINVDIEADFSAG [r14_274_TrMRF] | 4.1 ± 0.076 kcal/mol
MTPTFTVTELPPDLLRVEYTDPVTGKRATFTLPVSPVGDGVRLSAEVDAEGLPEEVAAAIRDAALAALAAAS [r1_403_JUSTAS] | 1.48 ± 0.021 kcal/mol
SAGGSAGGSAGSIVTIPIAGLSPEEAEALIKEAIAAGEDKPIILVDEDGTPTVVPASELKSAGGSAGGSAGG [r11_541_JUSTAS] | -0.189 ± 0.052 kcal/mol
SAGGSAGGSAGGDNVLILVKLPKGYRVYSINDPEVLKAVTLKELKDELEKKTGYPVEVLPSAGGSAGGSAGG [r7_259_TrMRF] | 1.48 ± 0.041 kcal/mol
SAGGSAGGSAGKIKVEKDKKTNEYRVTIELFDKNGKPVKKIEITVKKEDLPKIKELLKKLSAGGSAGGSAGG [r11_77_TrROS_Hall] | 2.96 ± 0.069 kcal/mol
SAGDNNKKPKYVYIPITINVPLPPGQTHEEAVDEVRLIMEELFPPGFKISEVKVHPEYNTVTVWIQIRSAGG [r19_81_TrROS] | 2.11 ± 0.089 kcal/mol
SKGKKVLVIPATLPEAEEIAKALGLPPSLFPSSKKLVDALKEAFPENVVVVVAPAKPVTEEELKALAEGKSA [r9_74_TrMRF] | 0.19 ± 0.037 kcal/mol
SAGMKKLPSEEERKKAEELAKKGELVIIIRLKNGEKLVIVVKSEEELKELLKKLPLEIEEIYVFKVKKKSAG [r5_481_TrROS_Hall] | 1.72 ± 0.028 kcal/mol
SAGGSADPIRTISGPVPLEEIEANIKKLLKENPNLDAAVFYIPEIGSKITIYFKNGKIVKIEIDLSSAGGSA [r15_166_TrMRF] | 2.88 ± 0.084 kcal/mol
SGFTVEVEVEYYPETGVLEVTVTTDGSSEQLIRDVADFIKEAGLDFVIESVEVEESGEVTTITLKLYVPPSA [r9_164_TrMRF] | 3.03 ± 0.18 kcal/mol
SNKIDKRIVSVTFYESLPNGSVKVNNLVFISTSDGKVRLVNAGEITIPLGDKTLSINIGEASSNVKLGKISA [r9_1113_TrMRF] | 1.01 ± 0.034 kcal/mol
SAGGTLTLLVEVDGLLVRVTAEVRLVYDPETDELTLEVRVRVEVRPLPAPPPPLVVVRDADGRLRLLSAGGS [r8_46_TrROS_Hall] | 1.03 ± 0.095 kcal/mol
SAGGSAGGSDRYLAVVFVRRADDPTPEVRTFTGIRTLADVERAVADALPADVAEVRIVVFPVRSAGGSAGGS [r20_29_TrMRF] | 1.59 ± 0.055 kcal/mol
